Patent US20240400696A1

molecular target: CD3; experiment: Octet, crude lysate
Sequence (P07766 23-126): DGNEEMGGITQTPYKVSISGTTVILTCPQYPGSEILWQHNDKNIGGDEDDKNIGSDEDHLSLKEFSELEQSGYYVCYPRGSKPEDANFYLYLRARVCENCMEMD

Binder | Kd [nM]
AC3397 (bispecific antibody, V domains shown) VH: EVQLLESGGGIVQPGGSLKLSCAASGFTFNTYAMNWVRQAPGKGLEWVARIRSPYNNYATYYADSVKDRFTISRDDSKNTVYLQMNNLKTEDTAVYYCVRHENFGNSYVSWFAHWGQGTLVTVSS VL: ELVVTQEPSLTVSPGGTVTLTCRSSNGAVTSSNYANWVQQKPGQAPRGLIGGTNKRAPGTPARFSGSLLGGKAALTLSGVQPEDEAVYYCALWYPNLWVFGGGTKLTVL | 51
AC3400 (bispecific antibody, V domains shown) VH: EVQLLESGGGIVQPGGSLKLSCAASGFTFNTYAMNWVRQAPGKGLEWVARIRSKGNNYATYYADSVKDRFTISRDDSKNTVYLQMNNLKTEDTAVYYCVRHENFGNSYVSWFAHWGQGTLVTVSS VL: ELVVTQEPSLTVSPGGTVTLTCRSSNGAVTSSNYANWVQQKPGQAPRGLIGGTNKRAPGTPARFSGSLLGGKAALTLSGVQPEDEAVYYCALWYPNLWVFGGGTKLTVL | 20.1

Binders with a lower Kd, results first:

Kd [nM] | Binder
11.5 | AC3398 (bispecific antibody, V domains shown) VH: EVQLLESGGGIVQPGGSLKLSCAASGFTFNTYAMNWVRQAPGKGLEWVARIRSKANNYATYYADSVKDRFTISRDDSKNTVYLQMNNLKTEDTAVYYCVRHENFGNSYVSWFAHWGQGTLVTVSS VL: ELVVTQEPSLTVSPGGTVTLTCRSSNGAVTSSNYANWVQQKPGQAPRGLIGGTNKRAPGTPARFSGSLLGGKAALTLSGVQPEDEAVYYCALWYPNLWVFGGGTKLTVL
5.1 | AC3401 (bispecific antibody, V domains shown) VH: EVQLLESGGGIVQPGGSLKLSCAASGFTFNTYAMNWVRQAPGKGLEWVARIRSKKNNYATYYADSVKDRFTISRDDSKNTVYLQMNNLKTEDTAVYYCVRHENFGNSYVSWFAHWGQGTLVTVSS VL: ELVVTQEPSLTVSPGGTVTLTCRSSNGAVTSSNYANWVQQKPGQAPRGLIGGTNKRAPGTPARFSGSLLGGKAALTLSGVQPEDEAVYYCALWYPNLWVFGGGTKLTVL
3.8 | AC3399 (bispecific antibody, V domains shown) VH: EVQLLESGGGIVQPGGSLKLSCAASGFTFNTYAMNWVRQAPGKGLEWVARIRSKRNNYATYYADSVKDRFTISRDDSKNTVYLQMNNLKTEDTAVYYCVRHENFGNSYVSWFAHWGQGTLVTVSS VL: ELVVTQEPSLTVSPGGTVTLTCRSSNGAVTSSNYANWVQQKPGQAPRGLIGGTNKRAPGTPARFSGSLLGGKAALTLSGVQPEDEAVYYCALWYPNLWVFGGGTKLTVL
